The record followed here is US9040054B2.

For the test, the target named is serum IgE of birch pollen allergic (Bet v 1 allergic) patients. The experiment in a line: ELISA inhibition: BM4 as inhibitor in serial dilutions, Bet v 1a immobilized at 200 ng/well, 5 sera. (In general: An ELISA detects its analyte on a solid surface through an enzyme-linked reagent.)

B1: BM4 (protein)
chain: GVFNYETETTSVIPAARLFKAFILDGDNLFPKVAPQAISSVENIEGNGGPGTIKKISFPEGFPFKYVKDRVDEVDHTNFKYNYSVIEGGPIGDTLEKISNEIKIVATPSGSTIKSISNKYHTKGDHEVKAEQVKASKEMGETLLRAVESYLLAHSDAYN
As to B1, the fold reduced patients' IgE binding capacity compared to Bet v 1a was 100 to 1000 fold.
